In publication PMC10514136, “Peptide-conjugated antimiRs improve myotonic dystrophy type 1 phenotypes by promoting endogenous MBNL1 expression” (Molecular Therapy. Nucleic Acids, 2023):
Several values for one entry are separate records, joined by “and”; a condition that tells them apart may be missing. Identical values can stand only once.

Legend:
Type in all cases: in vivo, mouse
[1] = system: HSALR mice; assay: Serum biochemistry profile
Source text: (§1) Mouse handling and experimental procedures followed the European law regarding laboratory animal care and experimentation (2003/65/C.E.) and were approved by Conselleria de Agricultura, […] (reference no. A1539961490857). We used homozygous transgenic HSA^LR (line 20 b) mice,[90] which were kindly provided by Dr Thornton (Rochester, NY) and were housed and bred in our animal facility. […] The mice were randomly allocated to the different treatments as follows: in each cage, each mouse was ear-marked as it was taken out, and each mouse was then assigned to a different treatment. Animals were injected biweekly intravenously with 150 μL of 1× PBS vehicle (controls; […] Mice were sacrificed 45 days after the first injection and the tissues of interest were frozen in liquid nitrogen for the molecular and histological assays. All the mice used in this study ranged from 5 to 5.5 months of age and all were males. At 45 days post treatment, animals were sacrificed, and blood was collected by cardiac puncture exsanguination with K3-EDTA (Sarstedt, Nümbrecht, Germany). The samples were analyzed by Laboratorios Montoro Botella (Valencia, Spain).

[2] = system: HSALR mice; assay: White blood cell differential count
Source text: as §1

[3] = system: Atp2a1 exon 22; assay: Alternative splicing of Atp2a1 exon 22 in muscle by RT-PCR (PSI, splice recovery); conditions: HSALR mice, individual mice; for Percentage spliced-in (PSI) Atp2a1 Gast: 9.2 mg/kg (mean) i.v. x3, day 45, gastrocnemius; for Percentage spliced-in (PSI) Atp2a1 Quads: 9.2 mg/kg (mean) i.v. x3, day 45, quadriceps
Description: (§2) Total RNA from murine gastrocnemius and quadriceps muscle was isolated using the miRNeasy Mini Kit (QIAGEN, Hilden, Germany) according to the manufacturer’s instructions. One microgram of RNA was digested with DNase I (Invitrogen, Carlsbad, CA) and reverse transcribed with SuperScript II (Invitrogen) using random hexanucleotides. For subsequent PCR reactions, 20 ng of cDNA was used with GoTaq polymerase (Promega). Specific primers were used to analyze the alternative splicing of Nfix, Atp2a1, and Clcn1 in mouse samples (both muscles). Gapdh levels established the endogenous reference levels using 0.2 ng of cDNA. PCR products were separated on a 2% agarose gel and quantified using ImageJ software (NIH, Bethesda, MD). PSR index was defined as value%SI minus X¯%DSI , divided by X¯%DSI minus X¯%HSI (SI, splicing inclusion of each sample; DSI, disease splicing inclusion; HSI, healthy splicing inclusion). Overall, PSR indicates the amount in both muscles analyzed. Primer sequences and exons analyzed are available in Cerro-Herreros et al.[20] In the case of off-targets, interleukins, and muscle regeneration marker Mstn-1, primers sequences are available in Table S5. We used 1 ng of mouse tissue cDNA as a template for multiplex qPCR using the QuantiFast Probe PCR Kit reagent. Commercial TaqMan probes (QIAGEN) were used for mouse (Mbnl1 and Mbnl2; FAM-labeled probes) and reference (GAPDH; MAX-labeled probe) genes. Results were normalized to Gapdh endogenous gene expression.
(§3) We used homozygous transgenic HSA^LR (line 20 b) mice,[90] which were kindly provided by Dr Thornton (Rochester, NY) and were housed and bred in our animal facility. Experimental groups were FVB as healthy control and HSA^LR treated with a scrambled ON (SC) and PBS as negative controls, and HSA^LR mice treated with all six experimental CPP-PMOs. The mice were randomly allocated to the different treatments as follows: in each cage, each mouse was ear-marked as it was taken out, and each mouse was then assigned to a different treatment. […] Mice were sacrificed 45 days after the first injection and the tissues of interest were frozen in liquid nitrogen for the molecular and histological assays. All the mice used in this study ranged from 5 to 5.5 months of age and all were males.

[4] = system: Nfix exon 7; assay: Alternative splicing of Nfix exon 7 in muscle by RT-PCR (PSI, splice recovery); conditions: HSALR mice, individual mice; for Percentage spliced-in (PSI) Nfix Gast: 9.2 mg/kg (mean) i.v. x3, day 45, gastrocnemius; for Percentage spliced-in (PSI) Nfix Quads: 9.2 mg/kg (mean) i.v. x3, day 45, quadriceps
Description: as §2, §3

[5] = ELISA determination of antimiR conjugate concentrations in tissues; conditions: HSALR mice, 9.2 mg/kg (mean) i.v. x3, day 45, hybridization ELISA, background subtracted, individual mice
Description: Custom ELISA-based measurements of antimiR conjugate concentrations in brain, kidney, liver, heart, gastrocnemius, and quadriceps from treated HSA^LR mice were performed as described in Burki et al.,[89] using the following phosphorothioate probes: for miR-218 (5′ → 3′) [DIG] T∗T∗G∗T∗G∗C∗T∗TGATCTA∗A∗C∗C∗A∗T∗G∗T [BIO]; for miR-23b (5′ → 3′) [BIO] A∗T∗C∗A∗C∗A∗T∗TGCCAGG∗G∗A∗T∗T∗A∗C∗C [DiG] double-labeled with digoxigenin (DIG) and biotin (BIO). In all cases, a control sample was used to subtract the background (HSA^LR treated with PBS for 9b2 and 9b2-KC ONs; HSA^LR treated with Scramble for 6aKC ONs).
Mouse handling and experimental procedures followed the European law regarding laboratory animal care and experimentation (2003/65/C.E.) and were approved by Conselleria de Agricultura, Generalitat Valenciana (reference no. A1539961490857). We used homozygous transgenic HSA^LR (line 20 b) mice,[90] which were kindly provided by Dr Thornton (Rochester, NY) and were housed and bred in our animal facility. Experimental groups were FVB as healthy control and HSA^LR treated with a scrambled ON (SC) and PBS as negative controls, and HSA^LR mice treated with all six experimental CPP-PMOs. The mice were randomly allocated to the different treatments as follows: in each cage, each mouse was ear-marked as it was taken out, and each mouse was then assigned to a different treatment. Animals were injected biweekly intravenously with 150 μL of 1× PBS vehicle (controls; HSA^LR n = 7 and FVB n = 6) or 150 μL of a solution 1.875 mg/mL of the test CPP-PMOs corresponding to an average dose of 9.2 mg/kg (HSA^LR mice: SC n = 5, 9b2-218 n = 5, 9b2-23b n = 5, […] n = 5, […] n = 5, 6aKC-218 n = 5, and 6aKC-23b n = 5; see Table S6 for precise dosing). Mice were sacrificed 45 days after the first injection and the tissues of interest were frozen in liquid nitrogen for the molecular and histological assays. All the mice used in this study ranged from 5 to 5.5 months of age and all were males.

[6] = HSALR mice, 9.2 mg/kg (mean) i.v. x3, day 45, serum, mean ± sd, n = 5
[7] = HSALR mice, 9.2 mg/kg (mean) i.v. x3, day 45, blood, differential count, mean ± sd

Row | Substance | ALT ([1]; mouse, in vivo, iv, 9.2 mg/kg) | AST ([1]; mouse, in vivo, iv, 9.2 mg/kg) | Alkaline Phosphatase ([1]; mouse, in vivo, iv, 9.2 mg/kg) | Amylase ([1]; mouse, in vivo, iv, 9.2 mg/kg) | Bile Acids ([1]; mouse, in vivo, iv, 9.2 mg/kg) | Bilirubin ([1]; mouse, in vivo, iv, 9.2 mg/kg) | C.P.K. ([1]; mouse, in vivo, iv, 9.2 mg/kg) | Creatinine ([1]; mouse, in vivo, iv, 9.2 mg/kg) | Glucose ([1]; mouse, in vivo, iv, 9.2 mg/kg) | L.D.H. ([1]; mouse, in vivo, iv, 9.2 mg/kg) | Total cholesterol ([1]; mouse, in vivo, iv, 9.2 mg/kg) | Triglycerides ([1]; mouse, in vivo, iv, 9.2 mg/kg) | Basophils ([2]; mouse, in vivo, iv, 9.2 mg/kg) | Eosinophils ([2]; mouse, in vivo, iv, 9.2 mg/kg) | Lymphocytes ([2]; mouse, in vivo, iv, 9.2 mg/kg) | Monocytes ([2]; mouse, in vivo, iv, 9.2 mg/kg) | Percentage spliced-in (PSI) Atp2a1 Gast [3] | Percentage spliced-in (PSI) Atp2a1 Quads [3] | Percentage spliced-in (PSI) Nfix Gast [4] | Percentage spliced-in (PSI) Nfix Quads [4] | further results
1 | 6aKC-23b (antisense GGUAAUCCCUGGCAAUGUGAU; all phosphorodiamidate morpholino (PMO), T or U not given here; Pip6aKC peptide conjugated) | 57,8 ± 13,349 U/L | 143,60 ± 41,464 U/L | 58,40 ± 6,693 U/L | 4232,6 ± 2590,822 U/L | 0,675 ± 0,754 µmol/L | 0,11 ± 0,083 mg/dL | 831,8 ± 357,821 U/L | 0,20 ± 0 mg/dL | 121,2 ± 27,607 mg/dL | 2574 ± 453,119 U/L | 227,40 ± 11,014 mg/dL | 235,4 ± 40,209 mg/dL | 0 ± 0% | 2,40 ± 1,341% | 47,80 ± 12,133% | 17,60 ± 7,537% | 14.22% and 26.08% and 16.73% and 17.96% and 14.74% | 29.81% and 23.38% and 17.76% and 24.03% and 33.87% | 63.59% and 47.55% and 61.79% and 62.43% and 69.22% | 56.32% and 62.29% and 64.55% and 58.42% and 53.11% | Seg cells ([2]; mouse, in vivo, iv, 9.2 mg/kg): 31,2 ± 13,142%; CPP-PMO concentration (pM), Brain ([5]; 9.2 mg/kg): 0.83 pM and 9.49 pM and 11.43 pM and 25.59 pM and 4.02 pM; CPP-PMO concentration (pM), Gastrocnemius ([5]; 9.2 mg/kg): 93.86 pM and 1846.67 pM and 1209.72 pM and 472.26 pM and 199.58 pM; CPP-PMO concentration (pM), Heart ([5]; 9.2 mg/kg): 1789.14 pM and 954.01 pM and 1508.23 pM and 1701.45 pM; CPP-PMO concentration (pM), Kidney ([5]; 9.2 mg/kg): 174345.23 pM and 110334.18 pM and 239168.85 pM and 16740.44 pM and 230939.23 pM; CPP-PMO concentration (pM), Liver ([5]; 9.2 mg/kg): 4615.98 pM and 9209.58 pM and 10333.80 pM and 76.40 pM and 8623.71 pM; CPP-PMO concentration (pM), Quadriceps ([5]; 9.2 mg/kg): 72.30 pM and 93.71 pM and 165.91 pM and 28.58 pM and 1.72 pM
2 | 6aKC-218 (antisense ACAUGGUUAGAUCAAGCACAA; all phosphorodiamidate morpholino (PMO), T or U not given here; Pip6aKC peptide conjugated) | 60,20 ± 16,208 U/L | 138,4 ± 57,665 U/L | 58 ± 4,123 U/L | 2999,4 ± 120,286 U/L | 2,38 ± 3,406 µmol/L | 0,096 ± 0,03 mg/dL | 818 ± 604,389 U/L | 0,20 ± 0 mg/dL | 107,2 ± 31,292 mg/dL | 2137,60 ± 340,071 U/L | 232 ± 12,124 mg/dL | 273,4 ± 51,335 mg/dL | 0 ± 0% | 0,60 ± 0,894% | 57,20 ± 12,357% | 21,40 ± 7,127% | 14.70% and 11.51% and 10.78% and 31.20% and 12.62% | 21.08% and 26.96% and 31.16% and 9.84% and 26.51% | 68.36% and 70.85% and 73.58% and 51.68% and 74.79% | 52.44% and 62.29% and 52.77% and 89.96% and 66.72% | Seg cells ([2]; mouse, in vivo, iv, 9.2 mg/kg): 20,4 ± 6,189%; CPP-PMO concentration (pM), Brain [5]: 5.54 pM; CPP-PMO concentration (pM), Gastrocnemius ([5]; 9.2 mg/kg): 3105.34 pM and 4126.64 pM; CPP-PMO concentration (pM), Heart ([5]; 9.2 mg/kg): 220.63 pM and 8031.17 pM and 1672.26 pM; CPP-PMO concentration (pM), Kidney ([5]; 9.2 mg/kg): 807303.00 pM and 163863.50 pM and 282189.80 pM and 288519.00 pM and 763252.10 pM; CPP-PMO concentration (pM), Liver ([5]; 9.2 mg/kg): 11820.61 pM and 1738.96 pM and 6547.20 pM and 6702.77 pM and 6452.86 pM; CPP-PMO concentration (pM), Quadriceps ([5]; 9.2 mg/kg): 56.37 pM and 3449.73 pM and 180.55 pM
3 | TCTTACCTCAGTTACAATTTA-Pip9b2 [Scramble, reference compound] | – | – | – | – | – | – | – | – | – | – | – | – | – | – | – | – | 6.44% and 27.49% and 24.15% and 5.60% and 15.65% | 18.65% and 34.43% and 18.71% and 17.01% and 7.50% | 62.98% and 52.74% and 55.70% and 81.00% and 76.46% | 60.30% and 80.52% and 66.59% and 72.38% and 72.49% | ALT [1, 6]: 47,6 ± 11,327 U/L; AST [1, 6]: 129,60 ± 33,687 U/L; Alkaline Phosphatase [1, 6]: 61 ± 6,557 U/L; Amylase [1, 6]: 3234,2 ± 476,489 U/L; Bile Acids [1, 6]: 3,38 ± 5,188 µmol/L; Bilirubin [1, 6]: 0,118 ± 0,026 mg/dL; C.P.K. [1, 6]: 763 ± 244,663 U/L; Creatinine [1, 6]: 0,20 ± 0 mg/dL; Glucose [1, 6]: 113,60 ± 35,352 mg/dL; L.D.H. [1, 6]: 2438,8 ± 183,91 U/L; Total cholesterol [1, 6]: 224,40 ± 11,216 mg/dL; Triglycerides [1, 6]: 259,8 ± 56,287 mg/dL; Basophils [2, 7]: 0 ± 0%; Eosinophils [2, 7]: 2 ± 0,707%; Lymphocytes [2, 7]: 60 ± 14,543%; Monocytes [2, 7]: 11,60 ± 7,829%; Seg cells [2, 7]: 25,8 ± 8,349%; Stab cells [2, 7]: 0,60 ± 0,548%
